Literature values as cited in article PMC10231660.
Where two headings read alike, the source gives them in different places. Each block holds one substance with its values, some of them ahead of it.

Legend:
MC1R = MC1R (UniProt Q01726)
ZNRF3 (Homo sapiens) [1] = target: ZNRF3 (Homo sapiens) (UniProt Q9ULT6)
[2] = target: BMPR1A ECD (Homo sapiens) (UniProt P36894)
ZNRF3 (Homo sapiens) [3] = target: ZNRF3 (Homo sapiens) (UniProt Q9ULT6); remark: listed apart in the source
ZNRF3 (Homo sapiens) [4] = target: ZNRF3 (Homo sapiens) (UniProt Q9ULT6); remark: listed apart in the source
ZNRF3 (Homo sapiens) [5] = target: ZNRF3 (Homo sapiens) (UniProt Q9ULT6); remark: listed apart in the source

Chain of UniProt Q9ULT6 (Q9ULT6 56-219): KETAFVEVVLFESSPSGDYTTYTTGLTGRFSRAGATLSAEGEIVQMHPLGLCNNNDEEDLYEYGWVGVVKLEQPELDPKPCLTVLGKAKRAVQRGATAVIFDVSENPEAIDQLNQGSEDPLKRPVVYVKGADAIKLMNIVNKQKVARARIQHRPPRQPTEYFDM
Chain of UniProt P36894 (P36894 24-152): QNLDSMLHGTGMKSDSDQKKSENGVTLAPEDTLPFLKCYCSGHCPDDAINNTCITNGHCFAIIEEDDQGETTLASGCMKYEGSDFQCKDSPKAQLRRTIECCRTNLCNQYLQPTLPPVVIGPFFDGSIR
Chain of UniProt Q01726 (Q01726 whole entry): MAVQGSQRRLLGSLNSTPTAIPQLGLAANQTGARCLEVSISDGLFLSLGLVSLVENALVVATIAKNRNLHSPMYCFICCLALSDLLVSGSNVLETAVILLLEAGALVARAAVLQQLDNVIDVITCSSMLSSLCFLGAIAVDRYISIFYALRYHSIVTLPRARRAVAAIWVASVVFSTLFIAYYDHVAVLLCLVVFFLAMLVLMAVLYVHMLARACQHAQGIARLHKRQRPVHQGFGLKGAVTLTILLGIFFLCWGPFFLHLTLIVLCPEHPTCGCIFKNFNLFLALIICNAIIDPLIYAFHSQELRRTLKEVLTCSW

Substance: RSPO1 FU1 (from UniProt Q2MKA7)
Kd (ZNRF3 (Homo sapiens) [1]): 6.8 µM

Substance: RSPO2 (from UniProt Q6UXX9)
Kd [2]: 4.8 nM

Substance: RSPO2 FU1 (from UniProt Q6UXX9)
Kd (ZNRF3 (Homo sapiens) [3]): 25 nM

Substance: RSPO4 FU1 (from UniProt Q2I0M5)
Kd (ZNRF3 (Homo sapiens) [5]): 300 µM

Results, then the substance that gave them:

Kd (MC1R): 1 nM
Substance: ASP CTD (from UniProt P42127)

Kd (ZNRF3 (Homo sapiens) [4]): 60 nM
Substance: RSPO3 FU1 (from UniProt Q9BXY4)
